Ends that are not written are not given here. * marks the point of attachment. Myristoyl = CCCCCCCCCCCCCC(=O)*
Tests used:
[1] = biological target: T1, PKC-δ (Homo sapiens, UniProt Q05655); assay: PKC-δ activity assay in situ in 293A cells; type: cell-based; design: The human PKC-δ open reading frame was also cloned in the same vectors; expressed in transfected cells; host or cells: HEK 293A; conditions: myristoylated peptide, last 2 h of starvation, FIG. 5B
Description: (§1) The PKC-δ activity assay in situ was performed by a modification of procedures detailed by Williams and Schrier (Williams et al., Glucose-Induced Protein Kinase C Activity Regulates Arachidonic Acid Release and Eicosanoid Production by Cultured Glomerular Mesangial Cells,” J. Clin. Invest. 92:2889-2896 (1993), which is hereby incorporated by reference in its entirety). Cells were seeded into 48-well plates and transfected with 0.1 μg/well pcDNA3-hBVR. After 24 h, the medium was replaced with a starvation medium (0.1% serum) and incubation continued for another 24 h to synchronize cells. In some wells, PKC inhibitor Rottlerin (20 μM) was added 30 min before addition of PMA (100 nM) for 15 min. In some wells, hBVR-derived peptides were introduced to cells in their myristoylated form. Cells were washed with medium and incubated for 10 min at 30° C. in 50 μl of kinase assay buffer (137 mM NaCl, 5.4 mM KCl, 10 mM MgCl2, 0.3 mM Na2HPO4, 0.4 mM KH2PO4, 25 mM β-glycerophosphate, 5.5 mM D-glucose, 5 mM EGTA, 1 mM CaCl2, 20 mM HEPES (pH 7.2), 50 μg/ml digitonin, 120 μg/ml of PKC-δ specific substrate (ARRKRKGSFFGG; SEQ ID NO: 52) and 100 μM ATP labeled with 10 μCi/ml [γ-^32P]-ATP). The reaction was stopped with the addition of 25 μl of ice-cold 30% (wt/vol) TCA. The TCA-soluble fraction samples were transferred to p81 phospho-cellulose filters. […]

[2] = biological target: T1, PKC-δ; assay: PMA-induced PKC-δ membrane translocation, confocal microscopy; type: cell-based; design: inserting the open reading frame of PKC-δ into the plasmid pDsRed2-C1; expressed in transfected cells; host or cells: 293A; conditions: 10 μM myristoylated peptide, PMA 15 min, FIG. 5E
Description: Confocal microscopy: Experimental protocols were based on those described by Edwards et al., “Carboxyl-Terminal Phosphorylation Regulates the Function and Subcellular Localization of Protein Kinase C betall,” J. Biol. Chem. 274:6461-6468 (1999), which is hereby incorporated by reference in its entirety. 293A cells were grown in a chamber slide system (Nalge-Nunc International Corp., Naperville, Ill.). Cells were transfected with pEGFP-hBVR and/or the plasmid expressing Ds2-Red-PKC-δ fusion protein. After a 24 h starvation period, cells were fixed for 10 min in 4% Para-formaldehyde in PBS and permeabilized with 1% Triton X-100 in PBS. The cells were mounted with Vectashield (Vector Laboratories, Inc. Burlingame, Calif.), containing DAPI to visualize the nuclei. Non-transfected cells were permeabilized as above, treated with 1:150 dilution of polyclonal anti-PKC-δ antibodies, washed, blocked, and then treated with polyclonal anti-hBVR antibodies. The PBS-washed cells were then treated with Rhodamine-red-conjugated donkey anti-rabbit IgG antibodies (Jackson ImmunoResearch, West Grove, Pa.) for 30 min, followed by mounting. A Leica TCS SP (model DMRE) confocal microscope was used (Maines et al., “Human Biliverdin Reductase: A Previously Unknown Activator of Protein Kinase C-βII,” J. Biol. Chem. 282:8110-8122 (2007), which is hereby incorporated by reference in its entirety).

[3] = biological target: T2, PKC-δ (Homo sapiens, UniProt Q05655, DEL151-160); assay: PKC-δ activity assay in situ in 293A cells; type: cell-based; conditions: myristoylated peptide, FIG. 5C
T2 construct: The human PKC-δ open reading frame was also cloned in the same vectors; expressed in transfected cells; host or cells: HEK 293A
Description: as §1

[4] = tested on: recombinant human PKC-δ; assay: PKC-δ kinase assay in vitro (p81 filter / autoradiography); type: biochemical
Description: Measurement of PKC-δ activity: In vitro kinase activity assays were performed with active recombinant human PKC-δ kinase (as a GST fusion protein). PKC-δ assay in vitro was performed using 5 ng purified enzyme in a 50 μl assay containing 50 mM HEPES pH 7.4, 10 mM MgCl2, 0.2 mM DTT, sonicated lipid activators (0.5 μg phosphatidylserine and 0.05 μg diacylglycerol) or lipid activators plus PMA (as indicated in appropriate experiments) and PKC-δ substrates. The reaction was started by the addition of 50 μM ATP labeled with 5 μCi [γ-^32P]-ATP. Incubation was performed for 15 min at 30° C., unless otherwise stated. The reaction was terminated on ice, either by the addition of Laemmli buffer followed by SDS-PAGE, transferred to PVDF membrane, and autoradiography, or by the addition of 1 volume 10% phosphoric acid for p81 transfer as described below. For autophosphorylation of PKC-δ 20 μM ATP was used to start the 40-min reaction.
When hBVR or its mutants were tested for their effect on PKC-δ activity, they were pre-incubated for 5 min at room temperature with the PKC prior to substrate addition. The hBVR-derived peptides were used at concentrations indicated in appropriate figures.
When hBVR or its mutants were assayed as the sole substrates for PKC, the incubation conditions were as described above and the incubation was for 40 min at 30° C. unless specified otherwise. The reaction was terminated by the addition of Laemmli buffer, and the reaction products were detected by SDS-PAGE, transfer to PVDF membrane, and autoradiography.
Measurement of PKC-δ activity: PKC-δ assay in vitro was performed using 0.1 ng/μl purified recombinant human PKC-δ kinase with reaction conditions specified by the manufacturer. Effector molecules such as hBVR or peptides were added 5 min prior to substrate. The reaction was started by the addition of [γ-^32P]-ATP (Lerner-Marmarosh et al., “Human Biliverdin Reductase: A Member of the Insulin Receptor Substrate Family with Serine/Threonine/Tyrosine Kinase Activity,” Proc. Natl. Acad. Sci. U.S.A. 102(20):7109-7114 (2005), which is hereby incorporated by reference in its entirety). Reaction products were detected either by gel electrophoresis and autoradiography or by the p81 filter assay. PKC-δ activity on agarose beads was also measured. Cell lysates were immunoprecipitated with anti-PKC-δ antibody followed by protein A/G agarose. The immunoprecipitates were used in kinase reactions containing 50 μM PKC-δ specific peptide substrate as above; incorporation of ^32P was measured by p81 method.

T1 sequence (Q05655 whole entry): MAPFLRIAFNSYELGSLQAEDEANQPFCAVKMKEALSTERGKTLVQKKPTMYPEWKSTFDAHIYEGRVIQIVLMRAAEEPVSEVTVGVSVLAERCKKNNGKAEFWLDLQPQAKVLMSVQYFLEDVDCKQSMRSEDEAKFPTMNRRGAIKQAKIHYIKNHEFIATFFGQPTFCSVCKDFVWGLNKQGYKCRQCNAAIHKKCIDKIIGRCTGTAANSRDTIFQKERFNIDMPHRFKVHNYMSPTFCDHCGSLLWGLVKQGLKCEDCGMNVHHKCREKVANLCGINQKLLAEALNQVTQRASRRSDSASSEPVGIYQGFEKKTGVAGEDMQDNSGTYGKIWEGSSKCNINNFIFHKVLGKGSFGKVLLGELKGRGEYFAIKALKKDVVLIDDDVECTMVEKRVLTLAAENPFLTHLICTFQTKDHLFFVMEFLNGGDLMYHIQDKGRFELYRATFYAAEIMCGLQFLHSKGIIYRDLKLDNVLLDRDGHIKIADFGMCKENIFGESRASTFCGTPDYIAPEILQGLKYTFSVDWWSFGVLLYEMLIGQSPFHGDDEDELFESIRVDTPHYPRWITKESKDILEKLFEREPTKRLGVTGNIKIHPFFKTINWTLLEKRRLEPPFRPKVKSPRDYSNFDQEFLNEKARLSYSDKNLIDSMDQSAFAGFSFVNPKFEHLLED
T2 sequence (Q05655 with tags, fused parts or gaps DEL151-160): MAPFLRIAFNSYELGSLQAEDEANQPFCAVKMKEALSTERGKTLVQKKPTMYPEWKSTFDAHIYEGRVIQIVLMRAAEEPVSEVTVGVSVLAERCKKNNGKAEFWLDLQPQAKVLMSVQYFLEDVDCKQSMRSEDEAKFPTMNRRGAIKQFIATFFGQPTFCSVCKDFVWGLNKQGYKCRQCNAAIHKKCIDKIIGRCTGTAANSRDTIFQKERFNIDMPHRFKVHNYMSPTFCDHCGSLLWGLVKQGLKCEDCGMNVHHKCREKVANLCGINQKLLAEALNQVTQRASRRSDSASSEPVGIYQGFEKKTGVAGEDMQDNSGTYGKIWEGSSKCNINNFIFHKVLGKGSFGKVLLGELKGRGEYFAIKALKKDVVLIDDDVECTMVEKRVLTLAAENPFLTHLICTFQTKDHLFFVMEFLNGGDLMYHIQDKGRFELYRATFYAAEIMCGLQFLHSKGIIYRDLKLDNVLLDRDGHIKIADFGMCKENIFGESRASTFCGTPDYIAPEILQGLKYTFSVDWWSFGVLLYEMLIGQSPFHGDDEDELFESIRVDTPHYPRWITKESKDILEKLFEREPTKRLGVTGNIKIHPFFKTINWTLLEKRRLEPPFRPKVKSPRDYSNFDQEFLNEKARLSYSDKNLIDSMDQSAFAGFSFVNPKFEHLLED

Question: For KRNRYLSF (Myristoyl-KRNRYLSF), which “PKC-δ activity in cells transfected with pcDNA-PKC-δ and stimulated with PMA” value [1] is on record?
Answer: inhibitory activity

Question: What about the “PKC-δ translocation to the cell membrane upon PMA” value [2] of the same sequence?
Answer: effectively inhibited

Question: What about the “activity of constitutively active PKC-δ in cells” value [3] of the same sequence?
Answer: effective inhibitor

Question: What about the “inhibition of phosphorylation of the commercial substrate” value ([4]; 50 μM substrate/10 μM inhibitor, FIG. 5A) of the same sequence?
Answer: More than 90%

Question: And the “sensitivity of PKC-δ activity to the inhibitory peptide” value ([4]; MBP substrate, increasing peptide concentrations, FIG. 5D)?
Answer: most sensitive

Reference: patent US9598677B2, “Use of human biliverdin reductase and fragments thereof for the treatment of protein kinase C-delta and ERK related conditions” (University of Rochester, priority 2009, dated 2017)
